Measured values as given in patent US20030028924.

Legend:
[1] = biological target: T1, Purified oat phytochrome A, Pfr spectral form, autophosphorylated, P06593
T1 chain: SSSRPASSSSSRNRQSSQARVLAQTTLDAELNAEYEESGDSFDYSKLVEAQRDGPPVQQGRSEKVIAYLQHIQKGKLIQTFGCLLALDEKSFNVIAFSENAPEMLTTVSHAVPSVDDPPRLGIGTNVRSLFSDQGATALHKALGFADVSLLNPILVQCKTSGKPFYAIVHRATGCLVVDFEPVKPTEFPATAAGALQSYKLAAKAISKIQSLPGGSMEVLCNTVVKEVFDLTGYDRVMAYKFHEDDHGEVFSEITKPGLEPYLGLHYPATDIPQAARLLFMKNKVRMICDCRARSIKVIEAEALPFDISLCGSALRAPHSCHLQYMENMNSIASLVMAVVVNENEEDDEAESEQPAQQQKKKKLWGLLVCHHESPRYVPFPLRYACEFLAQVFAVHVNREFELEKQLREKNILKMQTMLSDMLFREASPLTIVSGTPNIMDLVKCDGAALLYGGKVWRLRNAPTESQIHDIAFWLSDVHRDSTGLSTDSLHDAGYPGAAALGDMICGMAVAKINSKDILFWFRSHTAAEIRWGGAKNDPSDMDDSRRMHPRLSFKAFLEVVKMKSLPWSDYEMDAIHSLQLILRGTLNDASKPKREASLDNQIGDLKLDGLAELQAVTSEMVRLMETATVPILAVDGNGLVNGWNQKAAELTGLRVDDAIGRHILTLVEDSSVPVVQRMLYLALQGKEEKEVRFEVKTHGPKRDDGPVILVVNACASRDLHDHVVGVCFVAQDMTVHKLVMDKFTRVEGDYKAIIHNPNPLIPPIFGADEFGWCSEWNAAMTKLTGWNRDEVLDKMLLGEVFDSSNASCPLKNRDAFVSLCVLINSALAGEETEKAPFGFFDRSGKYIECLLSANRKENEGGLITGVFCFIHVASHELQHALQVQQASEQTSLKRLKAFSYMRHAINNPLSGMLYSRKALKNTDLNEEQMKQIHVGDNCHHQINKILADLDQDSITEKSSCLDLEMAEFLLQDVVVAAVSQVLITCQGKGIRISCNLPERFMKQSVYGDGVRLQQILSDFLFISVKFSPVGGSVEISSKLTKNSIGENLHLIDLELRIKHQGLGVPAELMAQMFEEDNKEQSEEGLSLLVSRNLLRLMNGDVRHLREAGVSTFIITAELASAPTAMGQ

[2] = biological target: T2, Purified oat phytochrome A, autophosphorylated in the presence of gamma-[32P]ATP, P06593
T2 chain: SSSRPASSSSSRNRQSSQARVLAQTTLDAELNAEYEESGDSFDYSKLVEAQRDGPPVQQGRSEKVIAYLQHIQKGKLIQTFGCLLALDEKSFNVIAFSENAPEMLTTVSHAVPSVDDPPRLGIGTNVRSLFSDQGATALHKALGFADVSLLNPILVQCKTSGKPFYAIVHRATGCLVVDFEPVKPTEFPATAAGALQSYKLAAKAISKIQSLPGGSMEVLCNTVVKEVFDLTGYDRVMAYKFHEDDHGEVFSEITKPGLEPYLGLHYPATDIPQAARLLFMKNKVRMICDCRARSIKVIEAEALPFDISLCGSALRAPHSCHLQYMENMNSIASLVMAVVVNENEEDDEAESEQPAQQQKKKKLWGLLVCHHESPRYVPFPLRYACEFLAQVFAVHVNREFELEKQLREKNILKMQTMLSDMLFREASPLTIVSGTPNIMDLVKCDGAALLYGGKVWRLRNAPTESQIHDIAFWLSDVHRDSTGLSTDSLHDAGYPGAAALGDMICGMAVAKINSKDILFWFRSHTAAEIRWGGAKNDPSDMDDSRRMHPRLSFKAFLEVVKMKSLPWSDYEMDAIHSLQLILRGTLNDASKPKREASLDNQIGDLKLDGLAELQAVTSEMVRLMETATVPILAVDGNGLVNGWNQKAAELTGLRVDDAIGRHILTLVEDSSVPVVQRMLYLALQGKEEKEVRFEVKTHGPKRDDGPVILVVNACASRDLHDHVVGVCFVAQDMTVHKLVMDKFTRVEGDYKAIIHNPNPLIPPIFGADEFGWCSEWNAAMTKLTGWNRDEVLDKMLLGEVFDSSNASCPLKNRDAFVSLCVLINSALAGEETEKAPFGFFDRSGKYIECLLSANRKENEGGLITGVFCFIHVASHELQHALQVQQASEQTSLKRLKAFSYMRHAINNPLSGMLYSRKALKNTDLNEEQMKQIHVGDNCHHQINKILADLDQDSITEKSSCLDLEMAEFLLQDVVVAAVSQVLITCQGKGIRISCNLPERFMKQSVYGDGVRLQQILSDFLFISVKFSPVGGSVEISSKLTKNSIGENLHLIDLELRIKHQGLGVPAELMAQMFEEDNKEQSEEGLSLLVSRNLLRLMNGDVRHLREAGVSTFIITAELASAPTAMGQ

[3] = biological target: T3, Purified oat phytochrome A, Pr spectral form, autophosphorylated, P06593
T3 chain: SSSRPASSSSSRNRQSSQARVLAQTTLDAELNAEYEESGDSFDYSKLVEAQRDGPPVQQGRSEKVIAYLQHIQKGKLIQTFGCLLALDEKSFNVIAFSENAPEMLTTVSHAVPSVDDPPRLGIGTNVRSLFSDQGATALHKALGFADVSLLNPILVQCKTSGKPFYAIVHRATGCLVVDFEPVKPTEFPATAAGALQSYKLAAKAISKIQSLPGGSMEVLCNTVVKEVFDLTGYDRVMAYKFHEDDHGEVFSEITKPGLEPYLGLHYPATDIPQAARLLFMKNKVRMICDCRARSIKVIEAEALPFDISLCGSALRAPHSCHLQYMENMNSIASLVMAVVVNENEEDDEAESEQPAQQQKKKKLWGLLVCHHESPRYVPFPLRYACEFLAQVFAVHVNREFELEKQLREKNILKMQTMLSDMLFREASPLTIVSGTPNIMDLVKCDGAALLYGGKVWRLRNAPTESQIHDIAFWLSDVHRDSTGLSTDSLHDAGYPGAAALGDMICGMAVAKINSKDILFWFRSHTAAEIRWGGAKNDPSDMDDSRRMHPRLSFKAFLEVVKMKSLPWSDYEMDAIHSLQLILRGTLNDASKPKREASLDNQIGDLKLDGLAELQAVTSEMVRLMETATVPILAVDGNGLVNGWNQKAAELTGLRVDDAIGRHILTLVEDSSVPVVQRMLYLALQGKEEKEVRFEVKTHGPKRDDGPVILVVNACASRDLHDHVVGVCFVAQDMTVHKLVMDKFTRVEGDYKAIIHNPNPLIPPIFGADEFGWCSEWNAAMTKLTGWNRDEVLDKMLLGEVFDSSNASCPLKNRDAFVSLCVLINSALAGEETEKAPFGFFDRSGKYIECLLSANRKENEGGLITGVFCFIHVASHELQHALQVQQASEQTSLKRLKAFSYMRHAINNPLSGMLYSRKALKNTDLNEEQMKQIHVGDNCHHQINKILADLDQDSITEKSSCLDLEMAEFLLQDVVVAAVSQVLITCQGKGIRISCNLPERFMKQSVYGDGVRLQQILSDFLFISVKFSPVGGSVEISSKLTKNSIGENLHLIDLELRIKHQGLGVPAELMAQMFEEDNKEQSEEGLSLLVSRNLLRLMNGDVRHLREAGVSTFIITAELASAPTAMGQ

B1: Recombinant PP2AC-JD protein expressed in E. coli BL21 from pGEX-4T-1 as a GST fusion, GST tag removed by thrombin (protein)
chain: DLDQWISKVKDGQHLLEDELQLLCEYVKEILIEESNVQPVNSPVTVCGDIHGQFHDLMKLFQTGGHVPETNYIFMGDFVDRGYNSLDVFTILLLLKARYPANITLLRGNHESRQLTQVYGFYDECQRKYGNANATRYCTDVFDYLTLSAIIDGTVLCVHGGLSPDIRTIDQIRVIERNCEIPHEGPFCDLMWSDPEDIETWAVSPRGAGWLFGSRVTSEFNHINNLDLVCRAHQLVQEGLKYMFQDKGLVTVWSAPNYCYRCGNVASILSFNENMEREVKFFTETEENNQMRGPRTGVPYFL
dephosphorylation of 32P-autophosphorylated phytochrome A (SDS-PAGE, autoradiography) [1]: more efficiently dephosphorylated by the PP2AC-JD than the Pr spectral form
dephosphorylation of 32P-autophosphorylated phytochrome A (SDS-PAGE, autoradiography) [2]: efficiently dephosphorylated by the PP2AC-JD only in the presence of Fe^2+ or Zn^2+
dephosphorylation of 32P-autophosphorylated phytochrome A (SDS-PAGE, autoradiography) [3]: The Pfr phytochrome A was more efficiently dephosphorylated by the PP2AC-JD than the Pr spectral form
